*1 amine or outer side, *2 acyl side, *3 side chain or, on linkers, in order; H or OH if unused. Where no end group is shown, it is not given here. Side-chain parts run from the residue outwards. The star is where a group is joined. C18 diacid = O=C(O)CCCCCCCCCCCCCCCCC(=O)*; C16 diacid = O=C(O)CCCCCCCCCCCCCCC(=O)*; γGlu = O=C(O)[C@H](CCC(=O)[*:2])N[*:1]; AEEA = NCCOCCOCC(=O)O
T1: human GIP receptor (human, UniProt P48546 22-466)
T1 sequence (looked up): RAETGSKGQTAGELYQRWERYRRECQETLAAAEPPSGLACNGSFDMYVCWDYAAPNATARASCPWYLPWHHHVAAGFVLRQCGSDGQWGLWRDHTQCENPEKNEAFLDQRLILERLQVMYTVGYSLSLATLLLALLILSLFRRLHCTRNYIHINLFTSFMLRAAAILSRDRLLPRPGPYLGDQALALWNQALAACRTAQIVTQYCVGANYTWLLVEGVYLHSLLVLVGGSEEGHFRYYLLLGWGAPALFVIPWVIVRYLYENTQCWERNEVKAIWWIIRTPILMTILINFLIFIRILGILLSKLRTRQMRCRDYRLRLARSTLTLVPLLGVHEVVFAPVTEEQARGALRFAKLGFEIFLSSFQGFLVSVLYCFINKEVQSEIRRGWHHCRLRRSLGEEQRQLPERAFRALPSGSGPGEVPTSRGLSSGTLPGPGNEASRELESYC

B1: AT444 (peptide)
peptide: TFISDYK([AEEA-AEEA-AEEA-γGlu-C16 diacid])IAMDRIHQQDFVNWLLAQRGPSSGAPPPS-OH
modifications: N-terminus assumed
SMILES: CC[C@H](C)[C@H](NC(=O)[C@H](CCCCNC(=O)COCCOCCNC(=O)COCCOCCNC(=O)COCCOCCNC(=O)CC[C@H](NC(=O)CCCCCCCCCCCCCCC(=O)O)C(=O)O)NC(=O)[C@H](Cc1ccc(O)cc1)NC(=O)[C@H](CC(=O)O)NC(=O)[C@H](CO)NC(=O)[C@@H](NC(=O)[C@H](Cc1ccccc1)NC(=O)[C@@H](N)[C@@H](C)O)[C@@H](C)CC)C(=O)N[C@@H](C)C(=O)N[C@@H](CCSC)C(=O)N[C@@H](CC(=O)O)C(=O)N[C@@H](CCCNC(=N)N)C(=O)N[C@H](C(=O)N[C@@H](Cc1c[nH]cn1)C(=O)N[C@@H](CCC(N)=O)C(=O)N[C@@H](CCC(N)=O)C(=O)N[C@@H](CC(=O)O)C(=O)N[C@@H](Cc1ccccc1)C(=O)N[C@H](C(=O)N[C@@H](CC(N)=O)C(=O)N[C@@H](Cc1c[nH]c2ccccc12)C(=O)N[C@@H](CC(C)C)C(=O)N[C@@H](CC(C)C)C(=O)N[C@@H](C)C(=O)N[C@@H](CCC(N)=O)C(=O)N[C@@H](CCCNC(=N)N)C(=O)NCC(=O)N1CCC[C@H]1C(=O)N[C@@H](CO)C(=O)N[C@@H](CO)C(=O)NCC(=O)N[C@@H](C)C(=O)N1CCC[C@H]1C(=O)N1CCC[C@H]1C(=O)N1CCC[C@H]1C(=O)N[C@@H](CO)C(=O)O)C(C)C)[C@@H](C)CC
B2: AT455 (peptide)
peptide: TFISDYKIAMDKIHQQDFVNWLLAQKG
HELM: PEPTIDE1{T.F.I.S.D.Y.K.I.A.M.D.K.I.H.Q.Q.D.F.V.N.W.L.L.A.Q.K.G}|PEPTIDE2{[O=C(O)CCCCCCCCCCCCCCC(=O)[*:2]].[gGlu]}$PEPTIDE1,PEPTIDE2,7:R3-2:R2$$$V2.0; N-terminus assumed
SMILES: CC[C@H](C)[C@H](NC(=O)[C@H](CCCCNC(=O)CC[C@H](NC(=O)CCCCCCCCCCCCCCC(=O)O)C(=O)O)NC(=O)[C@H](Cc1ccc(O)cc1)NC(=O)[C@H](CC(=O)O)NC(=O)[C@H](CO)NC(=O)[C@@H](NC(=O)[C@H](Cc1ccccc1)NC(=O)[C@@H](N)[C@@H](C)O)[C@@H](C)CC)C(=O)N[C@@H](C)C(=O)N[C@@H](CCSC)C(=O)N[C@@H](CC(=O)O)C(=O)N[C@@H](CCCCN)C(=O)N[C@H](C(=O)N[C@@H](Cc1c[nH]cn1)C(=O)N[C@@H](CCC(N)=O)C(=O)N[C@@H](CCC(N)=O)C(=O)N[C@@H](CC(=O)O)C(=O)N[C@@H](Cc1ccccc1)C(=O)N[C@H](C(=O)N[C@@H](CC(N)=O)C(=O)N[C@@H](Cc1c[nH]c2ccccc12)C(=O)N[C@@H](CC(C)C)C(=O)N[C@@H](CC(C)C)C(=O)N[C@@H](C)C(=O)N[C@@H](CCC(N)=O)C(=O)N[C@@H](CCCCN)C(=O)NCC(=O)O)C(C)C)[C@@H](C)CC
B3: AT446 (peptide)
peptide: TFISDYK([AEEA-AEEA-AEEA-γGlu-C18 diacid])IAMDRIHQQDFVNWLLAQRGPSSGAPPPS-OH
modifications: N-terminus assumed
SMILES: CC[C@H](C)[C@H](NC(=O)[C@H](CCCCNC(=O)COCCOCCNC(=O)COCCOCCNC(=O)COCCOCCNC(=O)CC[C@H](NC(=O)CCCCCCCCCCCCCCCCC(=O)O)C(=O)O)NC(=O)[C@H](Cc1ccc(O)cc1)NC(=O)[C@H](CC(=O)O)NC(=O)[C@H](CO)NC(=O)[C@@H](NC(=O)[C@H](Cc1ccccc1)NC(=O)[C@@H](N)[C@@H](C)O)[C@@H](C)CC)C(=O)N[C@@H](C)C(=O)N[C@@H](CCSC)C(=O)N[C@@H](CC(=O)O)C(=O)N[C@@H](CCCNC(=N)N)C(=O)N[C@H](C(=O)N[C@@H](Cc1c[nH]cn1)C(=O)N[C@@H](CCC(N)=O)C(=O)N[C@@H](CCC(N)=O)C(=O)N[C@@H](CC(=O)O)C(=O)N[C@@H](Cc1ccccc1)C(=O)N[C@H](C(=O)N[C@@H](CC(N)=O)C(=O)N[C@@H](Cc1c[nH]c2ccccc12)C(=O)N[C@@H](CC(C)C)C(=O)N[C@@H](CC(C)C)C(=O)N[C@@H](C)C(=O)N[C@@H](CCC(N)=O)C(=O)N[C@@H](CCCNC(=N)N)C(=O)NCC(=O)N1CCC[C@H]1C(=O)N[C@@H](CO)C(=O)N[C@@H](CO)C(=O)NCC(=O)N[C@@H](C)C(=O)N1CCC[C@H]1C(=O)N1CCC[C@H]1C(=O)N1CCC[C@H]1C(=O)N[C@@H](CO)C(=O)O)C(C)C)[C@@H](C)CC
B4: AT430 (peptide)
peptide: TFISDYK([AEEA-AEEA-AEEA-γGlu-C18 diacid])IAMDRIHQQDFVNWLLAQRGRRNDW-OH
modifications: N-terminus assumed
SMILES: CC[C@H](C)[C@H](NC(=O)[C@H](CCCCNC(=O)COCCOCCNC(=O)COCCOCCNC(=O)COCCOCCNC(=O)CC[C@H](NC(=O)CCCCCCCCCCCCCCCCC(=O)O)C(=O)O)NC(=O)[C@H](Cc1ccc(O)cc1)NC(=O)[C@H](CC(=O)O)NC(=O)[C@H](CO)NC(=O)[C@@H](NC(=O)[C@H](Cc1ccccc1)NC(=O)[C@@H](N)[C@@H](C)O)[C@@H](C)CC)C(=O)N[C@@H](C)C(=O)N[C@@H](CCSC)C(=O)N[C@@H](CC(=O)O)C(=O)N[C@@H](CCCNC(=N)N)C(=O)N[C@H](C(=O)N[C@@H](Cc1c[nH]cn1)C(=O)N[C@@H](CCC(N)=O)C(=O)N[C@@H](CCC(N)=O)C(=O)N[C@@H](CC(=O)O)C(=O)N[C@@H](Cc1ccccc1)C(=O)N[C@H](C(=O)N[C@@H](CC(N)=O)C(=O)N[C@@H](Cc1c[nH]c2ccccc12)C(=O)N[C@@H](CC(C)C)C(=O)N[C@@H](CC(C)C)C(=O)N[C@@H](C)C(=O)N[C@@H](CCC(N)=O)C(=O)N[C@@H](CCCNC(=N)N)C(=O)NCC(=O)N[C@@H](CCCNC(=N)N)C(=O)N[C@@H](CCCNC(=N)N)C(=O)N[C@@H](CC(N)=O)C(=O)N[C@@H](CC(=O)O)C(=O)N[C@@H](Cc1c[nH]c2ccccc12)C(=O)O)C(C)C)[C@@H](C)CC
B5: AT445 (peptide)
peptide: TFISDYK([AEEA-AEEA-γGlu-C18 diacid])IAMDRIHQQDFVNWLLAQRGPSSGAPPPS-OH
modifications: N-terminus assumed
SMILES: CC[C@H](C)[C@H](NC(=O)[C@H](CCCCNC(=O)COCCOCCNC(=O)COCCOCCNC(=O)CC[C@H](NC(=O)CCCCCCCCCCCCCCCCC(=O)O)C(=O)O)NC(=O)[C@H](Cc1ccc(O)cc1)NC(=O)[C@H](CC(=O)O)NC(=O)[C@H](CO)NC(=O)[C@@H](NC(=O)[C@H](Cc1ccccc1)NC(=O)[C@@H](N)[C@@H](C)O)[C@@H](C)CC)C(=O)N[C@@H](C)C(=O)N[C@@H](CCSC)C(=O)N[C@@H](CC(=O)O)C(=O)N[C@@H](CCCNC(=N)N)C(=O)N[C@H](C(=O)N[C@@H](Cc1c[nH]cn1)C(=O)N[C@@H](CCC(N)=O)C(=O)N[C@@H](CCC(N)=O)C(=O)N[C@@H](CC(=O)O)C(=O)N[C@@H](Cc1ccccc1)C(=O)N[C@H](C(=O)N[C@@H](CC(N)=O)C(=O)N[C@@H](Cc1c[nH]c2ccccc12)C(=O)N[C@@H](CC(C)C)C(=O)N[C@@H](CC(C)C)C(=O)N[C@@H](C)C(=O)N[C@@H](CCC(N)=O)C(=O)N[C@@H](CCCNC(=N)N)C(=O)NCC(=O)N1CCC[C@H]1C(=O)N[C@@H](CO)C(=O)N[C@@H](CO)C(=O)NCC(=O)N[C@@H](C)C(=O)N1CCC[C@H]1C(=O)N1CCC[C@H]1C(=O)N1CCC[C@H]1C(=O)N[C@@H](CO)C(=O)O)C(C)C)[C@@H](C)CC
B6: AT443 (peptide)
peptide: TFISDYK([AEEA-AEEA-γGlu-C16 diacid])IAMDRIHQQDFVNWLLAQRGPSSGAPPPS-OH
modifications: N-terminus assumed
SMILES: CC[C@H](C)[C@H](NC(=O)[C@H](CCCCNC(=O)COCCOCCNC(=O)COCCOCCNC(=O)CC[C@H](NC(=O)CCCCCCCCCCCCCCC(=O)O)C(=O)O)NC(=O)[C@H](Cc1ccc(O)cc1)NC(=O)[C@H](CC(=O)O)NC(=O)[C@H](CO)NC(=O)[C@@H](NC(=O)[C@H](Cc1ccccc1)NC(=O)[C@@H](N)[C@@H](C)O)[C@@H](C)CC)C(=O)N[C@@H](C)C(=O)N[C@@H](CCSC)C(=O)N[C@@H](CC(=O)O)C(=O)N[C@@H](CCCNC(=N)N)C(=O)N[C@H](C(=O)N[C@@H](Cc1c[nH]cn1)C(=O)N[C@@H](CCC(N)=O)C(=O)N[C@@H](CCC(N)=O)C(=O)N[C@@H](CC(=O)O)C(=O)N[C@@H](Cc1ccccc1)C(=O)N[C@H](C(=O)N[C@@H](CC(N)=O)C(=O)N[C@@H](Cc1c[nH]c2ccccc12)C(=O)N[C@@H](CC(C)C)C(=O)N[C@@H](CC(C)C)C(=O)N[C@@H](C)C(=O)N[C@@H](CCC(N)=O)C(=O)N[C@@H](CCCNC(=N)N)C(=O)NCC(=O)N1CCC[C@H]1C(=O)N[C@@H](CO)C(=O)N[C@@H](CO)C(=O)NCC(=O)N[C@@H](C)C(=O)N1CCC[C@H]1C(=O)N1CCC[C@H]1C(=O)N1CCC[C@H]1C(=O)N[C@@H](CO)C(=O)O)C(C)C)[C@@H](C)CC

What follows are binders tested against T1, human GIP receptor (assay: cell-based or functional assay).

Row | Binder | cAMP antagonism | cAMP antagonism % inhib | cAMP antagonism log
1 | B1 | 153 nM | 100% | -6.8 log M
2 | B2 | 31 nM | 95% | -7.5 log M
3 | B3 | 152 nM | 100% | -6.8 log M
4 | B4 | 153 nM | 100% | -6.8 log M
5 | B5 | 47 nM | 85% | -7.3 log M
6 | B6 | 171 nM | 100% | -6.8 log M
